# Measured values taken from US9463217B1, “Methods and pharmaceutical compositions for treatment of retinal occlusion” (Institut National de la Sante et de la Recherche Medicale, priority 2012, dated 2016).
# B1: Annexin V: recombinant, purified annexin V (BD Biosciences); binds to PS (protein, UniProt P08758 2-320, looked up)
# Annexin A5: AQVLRGTVTDFPGFDERADAETLRKAMKGLGTDEESILTLLTSRSNAQRQEISAAFKTLFGRDLLDDLKSELTGKFEKLIVALMKPSRLYDAYELKHALKGAGTNEKVLTEIIASRTPEELRAIKQVYEEEYGSSLEDDVVGDTSGYYQRMLVVLLQANRDPDAGIDEAQVEQDAQALFQAGELKWGTDEEKFITIFGTRSVSHLRKVFDKYMTISGFQIEETIDRETSGNLEQLLLAVVKSIRSIPAYLAETLYYAMKGAGTDDHTLIRVMVSRSEIDLFNIRKEFRKNFATSLYSMIKGDTSGDYKKALLLLCGEDD
# Legend:
# [1] = tested on: RBC adhesion in SCD; details: treatment by hydroxyurea, ref. [32]; cited from earlier work
# [2] = tested on: adhesion of red blood cells (RBCs) from patients with central retinal vein occlusion to human microvascular endothelial cells (HMEC-1); assay: RBC adhesion to HMEC under static conditions (radiometric 51Cr technique), inhibition by antibodies, peptide or annexin V; assay type: cell-based
# Description: (§1) Blood samples were tested after storage at −196° C. as previously described. For the first 10 patients, RBC adhesion (on three occasions, n=30) was measured just after blood sampling and after storage. As the results were similar before and after storage (the interassay coefficient of variation was 13%±2%) all remaining patients were tested after storage.
# RBC adhesion was measured under static conditions using a radiometric technique as previously described. Human microvascular endothelial cells (HMEC-1 Biological Branch Products; CDC, Atlanta, Ga., USA) were cultured in MCDB-131 (Invitrogen, Grand Island, N.Y., USA) supplemented with 15% fetal calf serum (D. Dutscher, Brumath, France), endothelial growth factor (10 ng mL^−1) and hydrocortisone (1 μg mL^−1)(Invitrogen). […] Radioactivity in the lysate was measured in a gamma counter, and adhesion was then calculated as RBCs per square millimeter. […] Inhibition of RBC adhesion was assessed using HMEC preincubated with specific antibodies directed against PS receptor (polyclonal anti-PS receptor antibody, Sigma, St Louis, Mo., USA; polyclonal anti-human stabilin-2 antibody, R&D systems, Minneapolis, Minn., USA) or against human CD36 (monoclonal anti-CD36/SR-B3; R&D systems) or antihuman Brain-specific angiogenesis inhibitor-1 (BAI-1; Santa Cruz Biotechnology, Santa Cruz, Calif., USA). […]
# [3] = tested on: adhesion of red blood cells (RBCs) from patients with central retinal vein occlusion to human microvascular endothelial cells (HMEC); assay: RBC adhesion to HMEC under flow conditions (microslides, video-microscopy), inhibition by antibodies, peptide or annexin V; assay type: cell-based
# Description: as §1
# Adhesion of RBCs to HMEC under flow conditions was determined according to a previously published technique. Briefly, HMEC were cultured in gelatin (2%) coated glass capillaries (microslides; Camlab Ltd, Cambridge, UK) for 24 h. Microslides containing confluent HMEC were mounted on the stage of a video-microscope. The RBC suspension (hematocrit 0.5%) was perfused through the microslide at a flow rate equivalent to a wall shear stress of 0.03 Pa for […], followed by washout of non-adherent cells for 10 min. The wall shear stress was then increased stepwise (from 0.03 to 0.3 Pa) every 5 min. At each step, adherent RBCs were video-recorded in 10 consecutive fields (one field measures 0.1 mm^2), then were counted using a computerized image analysis system (Optimas Media Cybernetics, Bethesda, Md., USA; R & D Vision, Paris, France) and expressed as number of RBCs per mm^2. Inhibition of RBC adhesion was measured in the presence of the antibodies used in static conditions or after RBC incubation with annexin V.
Molecule,effect on RBC adhesion (in words) [1],inhibition of CRVO RBC adhesion to HMEC [2],inhibition of CRVO RBC adhesion to HMEC ([3]; according to the shear stress),inhibition of CRVO RBC adhesion to HMEC ([3]; shear stress 0.1 Pa),inhibition of CRVO RBC adhesion to HMEC ([3]; shear stress 0.3 Pa)
NC(=O)NO [hydroxyurea],reduced RBC adhesion,,,,
B1,,35%,68-74%,75%±6%,74%±8%
